{"source": "paper PMC12865202", "about": "(2026)", "biological_target": "Chicken CapZ (full length α/β) (chicken, UniProt P13127 1-286; P14315 1-277)", "test": "ITC"}
{"binder": "SKREETKLTHFVRERAQGPRGRRLPAHLQAKIKRVSLDKPH", "note": "[RavB^108-148 synthetic peptide]", "values": [{"measurement": "Kd", "value": 170, "unit": "nM"}]}
